# Measured values: PMC9042962
# Molecular target: GFP-BLM (full-length Bloom helicase, GFP fusion protein) (human) (UniProt P54132)
# Assay: photobleaching step counting (single-molecule TIRFM, DNA curtain); GFP-tagged BLM (0.2 nM injected) bound to the free ends (30-nt 3' ssDNA overhang) of lambda-DNA tethered to a lipid bilayer; number of GFP photobleaching steps per end-bound complex; BLM buffer (20 mM Tris-HCl pH 7.5, 1 mM MgCl2, 2 mM ATP, 1 mM DTT, 0.2 mg/ml BSA), 37 °C; oligomer counted on DNA ends
substance,measurement,value
"GFP-BLM (full-length Bloom helicase, GFP fusion protein), P54132 1-1417 (enzyme; other documents disagree on this pair)",stoichiometry N,1 to 6 monomers
same,stoichiometry N (BLM monomers per DNA end),3.6
